How the values were obtained:
[1] = target: CLAVATA2 (CLV2; At1g65380) (Arabidopsis) (UniProt O80809); experiment: cell-based or functional assay
[2] = target: CORYNE (CRN; At5g13290) (Arabidopsis) (UniProt Q9LYU7); experiment: cell-based or functional assay
Sequence of UniProt Q9LYU7 (Q9LYU7 34-401): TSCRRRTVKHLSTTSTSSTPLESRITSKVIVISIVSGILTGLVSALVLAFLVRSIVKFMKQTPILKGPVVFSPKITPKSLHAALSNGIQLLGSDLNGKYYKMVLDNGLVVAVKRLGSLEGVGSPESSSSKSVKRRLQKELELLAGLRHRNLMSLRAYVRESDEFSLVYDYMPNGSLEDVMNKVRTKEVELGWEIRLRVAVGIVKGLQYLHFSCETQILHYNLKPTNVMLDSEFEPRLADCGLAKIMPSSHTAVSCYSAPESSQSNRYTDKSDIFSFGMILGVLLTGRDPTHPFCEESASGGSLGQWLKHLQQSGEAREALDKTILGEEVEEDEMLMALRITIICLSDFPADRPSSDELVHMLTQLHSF

Sequence of UniProt O80809 (O80809 26-720): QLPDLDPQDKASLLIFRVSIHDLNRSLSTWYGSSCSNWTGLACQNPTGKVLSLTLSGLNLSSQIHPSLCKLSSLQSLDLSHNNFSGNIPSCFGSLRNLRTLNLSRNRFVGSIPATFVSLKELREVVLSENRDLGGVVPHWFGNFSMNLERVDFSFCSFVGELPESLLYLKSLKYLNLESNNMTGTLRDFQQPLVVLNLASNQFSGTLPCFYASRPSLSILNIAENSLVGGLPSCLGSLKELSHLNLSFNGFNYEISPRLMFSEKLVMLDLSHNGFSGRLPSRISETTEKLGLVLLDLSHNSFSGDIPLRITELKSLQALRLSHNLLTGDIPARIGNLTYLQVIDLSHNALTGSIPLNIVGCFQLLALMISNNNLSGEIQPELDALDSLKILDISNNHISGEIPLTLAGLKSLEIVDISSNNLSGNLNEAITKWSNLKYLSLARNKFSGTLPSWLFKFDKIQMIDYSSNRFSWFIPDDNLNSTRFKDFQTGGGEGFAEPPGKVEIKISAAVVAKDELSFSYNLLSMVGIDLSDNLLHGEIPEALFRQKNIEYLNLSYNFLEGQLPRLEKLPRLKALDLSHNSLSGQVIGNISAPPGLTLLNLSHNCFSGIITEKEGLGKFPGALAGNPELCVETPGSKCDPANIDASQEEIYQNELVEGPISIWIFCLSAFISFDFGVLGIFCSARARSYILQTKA

| Substance | wus-like (%) T1 shoot phenotypes, overexpression in clv2-1 [1] [%] | wus-like (%) T1 shoot phenotypes, overexpression in crn-1 [2] [%] |
| --- | --- | --- |
| HgCLE2ΔSP (soybean cyst nematode CLE protein, overexpressed in Arabidopsis) (ligand) | 0 | 0 |
| HsCLE1 (beet cyst nematode CLE protein, overexpressed in Arabidopsis) (ligand) | 0 | 0 |
| HsCLE2 (beet cyst nematode CLE protein, overexpressed in Arabidopsis) (ligand) | 0 | 0 |

From US20130326736A1
